The text below walks through data of the DeepSol protein solubility set.

The nature of this data set: soluble on expression in E. coli; label from the status in PepcDB or PDB records.
Regarding “MASLSRALRVAAAHPRQSPTRGMGPCNLSSAAGPTAEKSVPYQRTLKEGQGTSVVAQGPSRPLPSTANVVVIGGGSLGCQTLYHLAKLGMSGAVLLERERLTSGTTWHTAGLLWQLRPSDVEVELLAHTRRVVSRELEEETGLHTGWIQNGGLFIASNRQRLDEYKRLMSLGKAYGVESHVLSPAETKTLYPLMNVDDLYGTLYVPHDGTMDPAGTCTTLARAASARGAQVIENCPVTGIRVWTDDFGVRRVAGVETQHGSIQTPCVVNCAGVWASAVGRMAGVKVPLVAMHHAYVVTERIEGIQNMPNVRDHDASVYLRLQGDALSVGGYEANPIFWEEVSDKFAFGLFDLDWEVFTQHIEGAINRVPVLEKTGIKSTVCGPESFTPDHKPLMGEAPELRGFFLGCGFNSAGMMLGGGCGQELAHWIIHGRPEKDMHGYDIRRFHHSLTDHPRWIRERSHESYAKNYSVVFPHDEPLAGRNMRRDPLHEELLGQGCVFQERHGWERPGWFHPRGPAPVLEYDYYGAYGSRAHEDYAYRRLLADEYTFAFPPHHDTIKKECLACRGAAAVFDMSYFGKFYLVGLDARKAADWLFSADVSRPPGSTVYTCMLNHRGGTESDLTVSRLAPSHQASPLAPAFEGDGYYLAMGGAVAQHNWSHITTVLQDQKSQCQLIDSSEDLGMISIQGPASRAILQEVLDADLSNEAFPFSTHKLLRAAGHLVRAMRLSFVGELGWELHIPKASCVPVYRAVMAAGAKHGLINAGYRAIDSLSIEKGYRHWHADLRPDDSPLEAGLAFTCKLKSPVPFLGREALEQQRAAGLRRRLVCFTMEDKVPMFGLEAIWRNGQVVGHVRRADFGFAIDKTIAYGYIHDPSGGPVSLDFVKSGDYALERMGVTYGAQAHLKSPFDPNNKRVKGIY”, the “soluble on expression in E. coli” value was “not soluble”. With “MGSDKIHHHHHHMTLALGRLDSITLLLPDPELFLYSYVRREAVLSSQIEGTQSTLTQLMLFELEESPGVPFDDVVEVSNYVAALDHGVARLKEGFPLSNRLIREMHTVLLFRGRGSNKGPGEFRRSQNWIGGTRPGNALFVPPPPHLVPQCMADLERFLHDENNPYPSVLKAALAHVQFETIHPFLDGNGRIGRLLIAFILHHDGILSRPLLYLSLYFKRHRETYYRLLDRVRTEGDWEAWTDFFLEGVRETAGNAVDTARRLIALFEADQQKIQSLGRSASSTLQVFQAFKERPLLTVGRISERTGLSFPAANQAVGRMEKKLGIVREITGRRRERAYAYDQYVAILNEGAEE” the entry was “not soluble”; with “MKPIQLPLSVRLRDDATFANYYPGANAAALGYVERLCEAEAGWAESLIYLWGHDGVGRSHLLQAACLRFEQFEERTIYLPMADLVQYGPEIFDDLEQCELVCIDDLDVLVGKREWEEGLFHLFNRLRDTGRRLLLAASKSPRELQVKLPDLKSRLTMALIFQLHGLSDEDKLRALQLRASRRGLHLTDEVGRFILNRGSRSMNSLFDLLEQLDRASLQAQRKLTIPFLKETLGWLEHHHHHH”, “soluble”. With “VTSPLLPQIGVDPPERGDAARNRRLLLDAAALLVAERGVDAVTMDAVACRAGVGKGTVFRRFGSRSGLMHALLDHTERELQQSFMFGPPPLGPGADPIDRLIAYGHARIAIVEVQGEVQRAAENSVEFRFAAPARAVSVRHVVSLLRAAGVRCDHELLACSLLAPLEATLVLHELRDLGMSVERLGAAWEDLIRRVTRC” the entry was “not soluble”; with “MDYSSSLPQSDRSTSTAAGHWVLARAGKRVLRPGGLKLTKRMLSAADMQGKEIVEFAPGLGRTAQLIVTEGVSSYVGVDQDSAAVARVEAIVKPHGGTVINAKAHDTGLSGESAEVVVGEAMLTMQGEKAKAEIVAEAFRLLKPGGYYAIHELGLTPNDIDPELADGLRKQLAQTIRVNARPLTENEWRTVLTNAGFEVEWISFAPMALLSPKRNLADEGFLGVVRIIRNLIRDKALRARVFQMRSTFNKYRDHLTGIAIVAKKPSN”, “not soluble”. Next, “MSIKILKPGLFSTIQDIGRLGYQDLGFSEAGALDYYSLSIAQKLIGNHGPAIEYTLVGPNIEFLTDNTFAIVGGDSEPKLNGNKIDLLTVYHVRNGDQLDIGQITEGARGYIVFGHPLKINKVAQSYSTHVRSGMGGFKGRALKKYDVIATQVNHNYKTNLGKTIDFSSIPDNNYIHVIEGPQINEFDEETIAKFVNSDFKISDQSDRMGYRLKGNTVAPKNSADIISEPVALGSIQVPNDGNPIILLNDKQTIGGYTKIATVTQLDLRKLAQMKPGDIIQFKWITVEEASKKLKEFNTKFEQLLKRFDEQPLFNLNQLRHTSNKIAEIIKEDRLEHHHHHH”: “not soluble”; “TEKARDLFDKLMTQIQLDDTAKEHPLIQNGRIDKVIVHQQSRLWEFHLSFDELMPVMLYQTFMQQLELAFQQIAQVSVQITTNQTTFTEEQLTDYWQLALLNSQCNTPLVQKVLKTQTPQFEDRKIILPVDNEAVIPYLKQQYLPIIEELYFSYGF”: “not soluble”; “MRVLYERCCGLDVHKKSITACVLTPEGKEIRTFGTMTDDLEELVEWLKQKQVTHVAMESTGVYWKPIYNLLEAEPIDVLVVNAQHIKAVPGRKTDVKDAEWIADLLRHGLLRGSYIPDRAQRELRELVRYRRSLIEERARELNRIQKVLEGANIKLASVVSDINGVSAQQILRALIEGTDDPAVLAQLAKGRLKQKIGELRRALKGIMGPHQRMMLAEQCRHIEYLDEAIARLSREIEERTRPFHEVLELMETIPGVGRQSAEQIIAEIGTDMSRFPTAAHVASWAGMAPGNHESAGKRLSGRTRKGNKKLRACLVECARAAARTKNTYLSAKYHRIAKRRGANRASVAVGRTILEIIYSVLTRKAPYRELGADYWDQQREAAIVRQTVKRLEGLGYEVKLEKTSA”: “not soluble”. Turning to “MVSARLIFVPLHARPSGISSATTGYVPWRSFIYRNGGGRPVQSSRPWLNMQQTLRITEIFYSLQGETRTAGLPTVFVRLTGCPLRCHYCDTAYAFSGGDVVSLDAIFERVAAYKPRYICVTGGEPLAQPNCISLLERLCDAGYEVSLETSGALDVSRVDPRVSKVLDLKTPGSGEVGRNRYENIPLLTDNDQVKFVVCSREDYDWAVSKLIEYRLDQRAGEVLFSPSHHQVSARELADWIVADNLPVRLQLQLHKILWNDEPGH”, the “soluble on expression in E. coli” value was “soluble”. Next, “MEYGAICTPFIFVVYAKSKYLCVLISNEMGKNKLEKFADMASYPHVFEYPYSAVDNVPFDMKGKWHQEFFGNDHPIVLELGCGRGEYTVGLGRMFPDKNFIAVDIKGSRMWTGATESLQAGMKNVAFLRTNIEIIERFFAAGEVSEIWLTFSDPQMKKATKRLTSTYFMERYRKFLKPDGIIHLKTDSNFMFTYTKYMIEANQLPVEFITEDLYHSDLVDDILSIKTYYEQQWLDRGLNIKYIKFRLPQEGVLQEPDVEIELDPYRSYNRSKRSGLQTSK”: “not soluble”. Next, “MSLAERKPIESWLTDMDGVLIHEGVPIPGADAFIKKLRESGKPFLVLTNNSIYTPRDLHARLRRMGLDVPVENIWTSALATAQFLGDQRPDGTAYVIGEAGLTTALHDIGYVLTDHEPDYVVLGETRTYSFEAMTQAVRLINKGARFICTNPDETGPSAEGPLPATGAVAALITKATGKKPYFAGKPNPLMMRTGLNTLGAHSETSAMIGDRMDTDVLAGMEAGMQTFLVLTGLTGPDQVENYPYRPSKVVDSIADLVDWIEGHHHHHH”: “soluble”; “IIGGREVIPHSRPYMASLQRNGSHLCGGVLVHPKWVLTAAHCLAQRMAQLRLVLGLHTLDSPGLTFHIKAAIQHPRYKPVPALENDLALLQLDGKVKPSRTIRPLALPSKRQVVAAGTRCSMAGWGLTHQGGRLSRVLRELDLQVLDTRMCNNSRFWNGSLSPSMVCLAADSKDQAPCKGDSGGPLVCGKGRVLAGVLSFSSRVCTDIFKPPVATAVAPYVSWIRKVTGRSALEHHHHHH”: “soluble”; “MNPIAVTLLTGFLGAGKTTLLRHILNEQHGYKIAVIENEFGEVSVDDQLIGDRATQIKTLTNGCICCSRSNELEDALLDLLDNLDKGNIQFDRLVIECTGMADPGPIIQTFFSHEVLCQRYLLDGVIALVDAVHADEQMNQFTIAQSQVGYADRILLTKTDVAGEAEKLHERLARINARAPVYTVTHGDIDLGLLFNTNGFMLEENVVSTKPRFHFIADKQNDISSIVVELDYPVDISEVSRVMENLLLESADKLLRYKGMLWIDGEPNRLLFQGVQRLYSADWDRPWGDEKPHSTMVFIGIQLPEEEIRAAFAGLRK”: “soluble”.

As to “MSLETKTPNDAKNQVQTHERMKTSSEHVTPLDFNYPIHIVQAPQNHHVVGILTPRIQVSDNLKPYIDKFQDALINQIQTIFEKRGYQVLRFQDEKALNAQDKRKIFSVLDLKGWVGILEDLKMNLKDPNNPNLDTLVDQSSGSVWFNFYEPESNRVVHDFAVEVGTFQAMTYTYKHNNSGGLNSSNSIIHEYLEKNKEDAIHKILNRMYAVVMKKAVTELTKENIDKYREAIDRMKGFKSSMPQKKEGHHHHHH”, the “soluble on expression in E. coli” value was “soluble”. With “SASHQEQSYKAGETRGKAQEKTGEAMGTMGDKTQAAKDKTQETAQSAQQKAHETAQSAKDKTSQAAQTTQERAQESKDKTGSYMSETGEAIKNKAHDAAEYTKETAEAGKEKTSGILGQTGEQVKQMAMGATDAVKHTLGLRTDEGNKEHVSSAPSTTTTTTTRETQRK” the entry was “soluble”. For “MDIFPGRLYLKKEVETVEGLQEILAISANRCFRCGNTNPFLFGKMTCASCDREDCLYCRNCIVMGRVNSCQKLYYQKADILPERIESCLGWEGTLSPGQKKAASAVVSSIKQKVDMLLWAVAGSGKTEMMFEGMDLALKQGFRICIASPRVDVCLELYPRLQAVFKEIDIVCLYGDSKDKYQGEQFVVATTHQLIRFYDTFQVIFIDEVDAFPYAKDPFLEYAVRKARTKVGSTIIITATPEKKWQQECATGKRNFVKIPARYHRKQLPVPRTCWIGPWKKNLAQGKITLKLINWIKKAELKNQPVLIFFPEIEAMNQFAEALVNYDFTRPVTVHSADQLRKEKVEWLREGKIKLLLTTTILERGVTFKDVQVAVFGSEGRIFTEAALVQIAGRAGRKLTHPTGDVCFFHYGKTTEMNRAITHIKKMNQLGFKEGLLDD”, the “soluble on expression in E. coli” value is “not soluble”. As for “MGGSHHHHHHGMASALAELSEEALLSVLPTIRVPKAGDRVHKDECAFSFDTPESEGGLYICMNTFLGFGKQYVERHFNKTGQRVYLHLRRTRRPKEEDPATGTGDPPRKKPTRLAIGVEGGFDLSEEKFELDEDVKIVILPDYLEIARDGLGGLPDIVRDRVTSAVEALLSADSASRKQEVQAWDGEVRQVSKHAFSLKQLDNPARIPPCGWKCSKCDMRENLWLNLTDGSILCGRRYFDGSGGNNHAVEHYRETGYPLAVKLGTITPDGADVYSYDEDDMVLDPSLAEHLSHFGIDMLKMQKTDKTMTELEIDMNQRIGEWELIQESGVPLKPLFGPGYTGIRNLGNSCYLNSVVQVLFSIPDFQRKYVDKLEKIFQNAPTDPTQDFSTQVAKLGHGLLSGEYSKPVPESGDGERVPEQKEVQDGIAPRMFKALIGKGHPEFSTNRQQDAQEFFLHLINMVERNCRSSENPNEVFRFLVEEKIKCLATEKVKYTQRVDYIMQLPVPMDAALNKEELLEYEEKKRQAEEEKMALPELVRAQVPFSSCLEAYGAPEQVDDFWSTALQAKSVAVKTTRFASFPDYLVIQIKKFTFGLDWVPKKLDVSIEMPEELDISQLRGTGLQPGEEELPDIAPPLVTPDEPKAPMLDESVIIQLVEMGFPMDACRKAVYYTGNSGAEAAMNWVMSHMDDPDFANPLILPGSSGPGSTSAAADPPPEDCVTTIVSMGFSRDQALKALRATNNSLERAVDWIFSHIDDLDAEAAMDISEGRSAADSISESVPVGPKVRDGPGKYQLFAFISHMGTSTMCGHYVC”, the “soluble on expression in E. coli” value is “not soluble”. On to “MTIYMFNNVNLQRQYMIDTIIFDFDGVILNSEPMHFEAIVQVLNQSGINLAYEEYMTHYLGLSDISLFPKILNDKGLAFSSTEIHQVIERKVRVYNELIENSEQLPMTPDLDWFLVRVARQYGKIGICSGSNRHSIIKILEKIHCGRLACYFKTIVSCEDVSLGKPSPEGYLLAAHRLQSKPENCLVIEDSEHGVAAAKAGGMLVAGLLTTLSRDLLANADMIVHDFKELDHLLNSH”, for which the “soluble on expression in E. coli” value is on record as “not soluble”.
